For data set [1], the target named is T1, hnRNP H RRM domain (RRM1/2) (UniProt P31943 P31943:11-188).
T1 sequence: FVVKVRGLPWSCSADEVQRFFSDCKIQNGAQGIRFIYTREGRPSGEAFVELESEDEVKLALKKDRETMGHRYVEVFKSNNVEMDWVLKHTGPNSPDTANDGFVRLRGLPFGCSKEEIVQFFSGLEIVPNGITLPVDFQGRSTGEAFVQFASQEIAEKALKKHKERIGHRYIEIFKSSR
As to the kind of experiment: 1H-15N HSQC NMR titration at 1:0.5, described as potent binding; 20 mM potassium phosphate, 70 mM KCl, pH 7.0, 25 C. Conditions: tags: His6 cleaved by 3C protease; pET-28a(+), E. coli BL21(DE3); 15N-labelled; G4. The procedure:
(§1) Titration experiments were performed by recording a series of 2D ¹⁵N-HSQC spectra on uniformly ¹⁵N-labeled RRM domain (˜0.1 mM) in the presence of different amounts of DNA/RNA or compounds at 25° C. Protein samples and stock solutions of DNA/RNA were all prepared in 20 mM potassium phosphate buffer and 70 mM KCl, pH 7.0, 10% D₂O. All compounds were dissolved in isotope-labeled d₆-DMSO (Sigma-Aldrich) at about 50 mM concentration, working as stock solutions. To avoid chemical shift changes of protein samples resulted from d₆-DMSO addition, 10 μL d₆-DMSO was added into 500 μL of 0.1 mM protein solution in the NMR buffer (20 mM potassium phosphate buffer and 70 mM KCl, pH 7.0, 10% D₂O) and then the 2D HSQC was recorded as a reference.

Data set [2] deals with T1, hnRNP H RRM domain (RRM1/2). Description: 1H-15N HSQC NMR titration at 1:0.5; 20 mM potassium phosphate, 70 mM KCl, pH 7.0, 25 C. The conditions noted are these: tags: His6 cleaved by 3C protease; pET-28a(+), E. coli BL21(DE3); 15N-labelled; G4. The procedure: as §1

With GGGGCCGGGGCCGGGGCCGGGGCC (structured_DNA) [DNA (G4C2)4 G4], the binding result in data set [1] is reported as “binds”.
For the molecule GGGGCCGGGGCC (ssRNA) [RNA (G4C2)2 G4], in data set [2], the binding result is on record as “binds”.

For the origin of these results see patent publication US20220112180, “NOVEL COMPOUNDS AS POTENTIAL THERAPEUTIC AGENTS TARGETING VARIOUS NEURODEGENERATIVE DISEASES” (The Hong Kong University of Science and Technology, published 2022).
